Data reported in US6613536B1, “Synthetic peptides and pharmaceutical compositions comprising them for the treatment of systemic lupus erythematosus” (Yeda Research and Development Co. Ltd., priority 1995, dated 2003).

What was measured:
[1] = tested on: BALB/c and SJL mice; experiment: Clinical manifestations of SLE in immunized mice (WBC, proteinuria, kidney analysis); format: in vivo, mouse
Protocol: The erythrocyte sedimentation rate was determined by diluting the heparinized blood in PBS at a ratio of 1:1. The diluted blood was then passed to a microsampling pipette and the sedimentation was measured 6 hours later. White blood cell counts were determined after the hemolysis of heparinized blood. Proteinuria was measured in a semi-quantitative manner, using a Combistix kit (Ames, Stoke Poges, Slough, U.K.). Immunohistology was performed by incubation of fixed frozen cryostat sections with FITC-labeled antibodies to mouse Ig. Staining was visualized via use of a fluorescent microscope.
BALBtc and SJL mice were immunized with mAb 5G12 or with peptides Ia and IIIa, and five months later were checked by two criteria for manifestation of SLE: white blood cell count (WBC) and proteinuria.
(i) White blood cell count (WBC): The mice were bled, their blood was diluted 1:10 with 1% (vol/vol) acetic acid in order to eliminate the red blood cells, and white blood cells were counted under a normal light microscope.
Proteinuria: The urine of the mice was tested using combisticks (Combistix Kit, Ames) for the presence of protein.

[2] = tested on: peripheral blood lymphocytes (PBL); experiment: Proliferation of PBL from SLE patients and healthy controls; format: cell-based, human
Protocol: (§1) PBL from human SLE patients and of the appropriate control donors (2×10^5/well) were cultured in microtiter plates in enriched medium containing 10% pooled AB sera in the presence of the human or mouse monoclonal 16/6 Id antibody, in the presence of peptides of the invention or in the presence of phytohemagglutinin (PHA). The rate of proliferation was evaluated by the incorporation of ^3[H]-thymidine in the cell culture. Non-relevant peptides were used as specificity controls. Antigen and mitogen-stimulated cytokine production was quantitated in the supernatants of the above cultures using either the cytokine-dependent lines or the appropriate pairs of antibodies in ELISA assays. Inhibition of the proliferative responses was performed in vitro by adding increasing doses of the tested peptide analogs into the proliferative culture mixtures.
Peripheral blood lymphocytes (PBL) were isolated from the blood of SLE patients or healthy controls using ficol gradient. Thereafter, the PBL were incubated in the presence of different concentrations of the peptides Ia, IIa or IIIa, or the human 16/6 Id mAb for 24 hr, when a sample was taken for IL-2 measurement. The assay was continued for a total of 7 days, and ^3H-thymidine was added for the last 16 hr. Proliferation was detected by reading the amount of radioactivity incorporated into the DNA of the cells.

[3] = tested on: peripheral blood lymphocytes (PBL); experiment: IL-2 production by PBL of SLE patients and healthy controls; format: cell-based, human; details: sample at 24 hr
Protocol: as §1
PBL were isolated from blood of SLE patients or healthy controls using ficol gradient, and were incubated as in Example 13. A sample of 50 μl was removed 24 hr after the assay was started, and incubated in the presence of IL-2 sensitive cells (CTLD) for 24 hr, after which ^3H-thymidine was added for 16 hr, and the plates were harvested and counted on a beta counter.

[4] = tested on: antibodies in sera of SLE patients and healthy controls; experiment: Antibodies in human sera binding coated peptides or mAb 5G12 (ELISA); details: 32 SLE patients in comparison to healthy controls; plates coated 10 μg/ml
Protocol: Human SLE patients (32 patients) were bled and their sera were tested by ELISA for their ability to bind the peptides Ia, IIa and IIIa, a control peptide p195-212 (a myasthogenic peptide described in PCT publication No. WO 94/00148) or mAb 5G12.
Detection of the antibodies was conducted on plates that were coated with 10 μg/ml of peptides Ia, IIa, IIIa or p195-212 or mAb 5G12, in PBS for 2 hr, washed and blocked with 1% ovalbumin in PBS for an additional 2 hr. ELISA was continued as described after blockage in Example 2 above, using goat anti-human IgG polyclonal antibody conjugated to peroxidase.

[5] = molecular target: MHC class II products (H-2s) on splenic antigen-presenting cells of SJL mice (mouse); experiment: flow cytometry, inhibition of binding of biotinylated peptide IIIa (competitor) to SJL APC
[6] = molecular target: MHC class II products (H-2s) on splenic antigen-presenting cells of SJL mice (mouse); experiment: flow cytometry, inhibition of binding of biotinylated peptide Ia (competitor) to SJL APC
[7] = molecular target: MHC class II products (H-2d) on splenic antigen-presenting cells of BALB/c mice (mouse) (UniProt P04228); experiment: flow cytometry, inhibition of binding of biotinylated peptide IIIa (competitor) to BALB/c APC
[8] = molecular target: MHC class II products (H-2b) on splenic antigen-presenting cells of C57BL/6 mice (mouse) (UniProt P14434); experiment: flow cytometry, inhibition of binding of biotinylated peptide Ia (competitor) to C57BL/6 APC
[9] = molecular target: MHC class II products (H-2b) on splenic antigen-presenting cells of C57BL/6 mice (mouse) (UniProt P14434); experiment: flow cytometry, inhibition of binding of biotinylated peptide IIIa (competitor) to C57BL/6 APC
[10] = molecular target: MHC class II products (H-2d) on splenic antigen-presenting cells of BALB/c mice (mouse) (UniProt P04228); experiment: flow cytometry, inhibition of binding of biotinylated peptide Ia (competitor) to BALB/c APC
[11] = molecular target: MHC class II products (H-2b) on splenic antigen-presenting cells of C3H.SW mice (mouse) (UniProt P14434); experiment: flow cytometry, inhibition of binding of biotinylated peptide IIIa (competitor) to C3H.SW APC
[12] = molecular target: MHC class II products (H-2b) on splenic antigen-presenting cells of C3H.SW mice (mouse) (UniProt P14434); experiment: flow cytometry, inhibition of binding of biotinylated peptide Ia (competitor) to C3H.SW APC

Substance	protein level in urine (in words) ([1]; BALB/c mice)	protein level in urine (in words) ([1]; SJL mice)	proliferation of PBL, actual number of responders ([2]; SLE patients)	proliferation of PBL, percentage of responders ([2]; SLE patients) [%]	proliferation of PBL, actual number of responders ([2]; healthy controls)	proliferation of PBL, percentage of responders ([2]; healthy controls) [%]	IL-2 production by PBL, actual number of responders ([3]; SLE patients)	IL-2 production by PBL, percentage of responders ([3]; SLE patients) [%]	IL-2 production by PBL, actual number of responders ([3]; healthy controls)	IL-2 production by PBL, percentage of responders ([3]; healthy controls) [%]	levels of serum antibodies that bind the coated peptide or mAb [4]	% inhibition [5] [%]	% inhibition [6] [%]	% inhibition [7] [%]	% inhibition [8] [%]	% inhibition [9] [%]	% inhibition [10] [%]	% inhibition [11] [%]	% inhibition [12] [%]
EINPSTGGTTYNQKFKAKAT (EINPSTGGTTYNQKFKAKAT) [peptide IIa, based on the CDR2 region of the VH chain of mAb 5G12]	smaller increase in protein level	High levels of protein	3/32	9	7/25	28	3/32	9	8/25	32	significantly higher levels of antibodies	–	–	–	–	–	–	–	–
10.3.6.2 (anti-I-A^s (Zamvil et al., 1988)) (antibody)	–	–	–	–	–	–	–	–	–	–	–	92.8	100	–	–	–	–	–	–
MKD6 (anti-I-A^d, Beckton-Dickinson) (antibody)	–	–	–	–	–	–	–	–	–	–	–	0	0	100	0	0	76.7	25	0
34-5-3 (anti-I-A^b, Pharmingen) (antibody)	–	–	–	–	–	–	–	–	–	–	–	–	–	0	82	59.3	0	84.4	60
